The results in this text go back to patent publication US20060160146.

Series [1] deals with SEAP-APPsw fusion protein (secretory alkaline phosphatase fused to APP 581-695 with glutamic acid at position 17 of β-amyloid and Swedish mutations).
Series [2] concerns SEAP-APPwt fusion protein (secretory alkaline phosphatase fused to APP 581-695, no Swedish mutations).
Series [3] concerns BE11-hAPP695 with alanine at position 17 of β-amyloid.
Series [4] concerns BE11-hAPP695 with glutamic acid at position 17 of β-amyloid.
Chain of BE11-hAPP695 with glutamic acid at position 17 of β-amyloid (chain, as listed by the source): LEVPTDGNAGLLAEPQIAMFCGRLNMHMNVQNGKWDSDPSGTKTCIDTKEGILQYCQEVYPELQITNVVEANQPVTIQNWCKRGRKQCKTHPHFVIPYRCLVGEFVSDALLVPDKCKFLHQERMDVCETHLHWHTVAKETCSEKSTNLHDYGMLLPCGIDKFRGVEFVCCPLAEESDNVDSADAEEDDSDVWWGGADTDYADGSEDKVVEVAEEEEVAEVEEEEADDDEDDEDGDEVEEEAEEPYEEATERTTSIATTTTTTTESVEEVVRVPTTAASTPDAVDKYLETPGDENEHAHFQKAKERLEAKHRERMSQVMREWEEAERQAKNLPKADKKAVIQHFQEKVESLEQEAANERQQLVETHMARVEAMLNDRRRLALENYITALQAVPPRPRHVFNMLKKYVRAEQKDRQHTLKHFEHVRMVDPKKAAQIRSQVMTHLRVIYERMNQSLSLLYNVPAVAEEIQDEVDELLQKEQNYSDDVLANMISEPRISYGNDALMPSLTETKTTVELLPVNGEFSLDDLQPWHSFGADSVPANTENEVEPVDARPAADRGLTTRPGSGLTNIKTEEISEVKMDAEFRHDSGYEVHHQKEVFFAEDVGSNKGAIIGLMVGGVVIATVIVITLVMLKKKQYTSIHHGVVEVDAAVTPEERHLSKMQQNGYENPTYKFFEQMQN
For series [5], the system named is BE11-hAPP695 with lysine at position 17 of β-amyloid.
Chain of BE11-hAPP695 with lysine at position 17 of β-amyloid (chain, as listed by the source): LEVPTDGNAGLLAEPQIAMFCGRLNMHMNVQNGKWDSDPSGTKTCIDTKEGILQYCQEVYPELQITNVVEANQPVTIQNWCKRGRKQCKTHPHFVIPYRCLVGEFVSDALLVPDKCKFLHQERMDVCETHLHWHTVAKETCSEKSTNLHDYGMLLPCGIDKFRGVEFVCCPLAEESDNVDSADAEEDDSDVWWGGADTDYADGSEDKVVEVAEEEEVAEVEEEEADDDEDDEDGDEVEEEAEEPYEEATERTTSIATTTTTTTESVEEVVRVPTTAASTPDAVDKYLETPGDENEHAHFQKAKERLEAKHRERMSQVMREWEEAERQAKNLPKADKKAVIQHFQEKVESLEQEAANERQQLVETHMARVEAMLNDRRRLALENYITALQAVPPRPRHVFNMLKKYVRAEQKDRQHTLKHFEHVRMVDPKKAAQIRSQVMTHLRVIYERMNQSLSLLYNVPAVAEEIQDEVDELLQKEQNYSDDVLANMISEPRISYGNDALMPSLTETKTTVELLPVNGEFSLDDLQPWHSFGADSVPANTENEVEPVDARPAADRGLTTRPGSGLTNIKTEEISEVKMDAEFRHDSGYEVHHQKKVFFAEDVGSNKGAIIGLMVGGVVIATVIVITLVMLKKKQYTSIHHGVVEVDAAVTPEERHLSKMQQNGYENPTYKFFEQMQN
Series [6] deals with BE11-hAPP695 with proline at position 17 of β-amyloid.
Chain of BE11-hAPP695 with proline at position 17 of β-amyloid (chain, as listed by the source): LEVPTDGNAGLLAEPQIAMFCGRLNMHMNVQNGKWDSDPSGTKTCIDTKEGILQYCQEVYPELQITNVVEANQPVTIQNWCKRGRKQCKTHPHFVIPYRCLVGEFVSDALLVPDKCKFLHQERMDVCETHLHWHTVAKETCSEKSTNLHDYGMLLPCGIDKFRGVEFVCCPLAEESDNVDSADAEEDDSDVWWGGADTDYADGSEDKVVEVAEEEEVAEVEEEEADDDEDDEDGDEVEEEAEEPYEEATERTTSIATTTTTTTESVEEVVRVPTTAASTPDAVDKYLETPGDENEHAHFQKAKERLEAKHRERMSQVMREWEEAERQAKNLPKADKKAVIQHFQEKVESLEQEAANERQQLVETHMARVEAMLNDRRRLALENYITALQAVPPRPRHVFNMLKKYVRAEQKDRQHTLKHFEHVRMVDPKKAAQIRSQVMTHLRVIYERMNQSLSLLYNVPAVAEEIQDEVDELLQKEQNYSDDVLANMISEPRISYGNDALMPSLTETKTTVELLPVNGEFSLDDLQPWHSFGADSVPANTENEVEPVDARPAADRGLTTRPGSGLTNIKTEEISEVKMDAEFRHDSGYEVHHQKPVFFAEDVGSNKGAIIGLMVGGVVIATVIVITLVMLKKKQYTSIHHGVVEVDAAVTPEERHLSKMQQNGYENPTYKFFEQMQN
In series [7] the test system is BE11-hAPP695 with tryptophan at position 16 of β-amyloid.
Chain of BE11-hAPP695 with tryptophan at position 16 of β-amyloid (chain, as listed by the source): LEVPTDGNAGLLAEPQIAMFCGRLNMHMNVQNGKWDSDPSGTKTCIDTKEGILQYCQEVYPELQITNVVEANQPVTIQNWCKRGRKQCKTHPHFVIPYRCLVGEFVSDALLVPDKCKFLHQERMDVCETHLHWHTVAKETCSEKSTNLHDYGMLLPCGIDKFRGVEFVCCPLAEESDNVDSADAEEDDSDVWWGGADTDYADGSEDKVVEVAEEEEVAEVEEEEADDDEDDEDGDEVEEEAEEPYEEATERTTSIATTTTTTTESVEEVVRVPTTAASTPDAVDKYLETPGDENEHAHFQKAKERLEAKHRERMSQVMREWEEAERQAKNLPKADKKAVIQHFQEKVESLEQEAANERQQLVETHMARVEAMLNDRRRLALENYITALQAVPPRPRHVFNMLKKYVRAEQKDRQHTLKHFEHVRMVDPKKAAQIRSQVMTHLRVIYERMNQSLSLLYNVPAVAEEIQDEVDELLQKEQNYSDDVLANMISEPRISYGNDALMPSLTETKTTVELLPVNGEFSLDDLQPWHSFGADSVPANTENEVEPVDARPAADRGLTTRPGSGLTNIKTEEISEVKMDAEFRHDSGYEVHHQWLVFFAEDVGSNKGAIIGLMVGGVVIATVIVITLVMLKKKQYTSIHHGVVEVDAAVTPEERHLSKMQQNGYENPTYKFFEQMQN

Chain of BE11-hAPP695 with alanine at position 17 of β-amyloid (chain, as listed by the source): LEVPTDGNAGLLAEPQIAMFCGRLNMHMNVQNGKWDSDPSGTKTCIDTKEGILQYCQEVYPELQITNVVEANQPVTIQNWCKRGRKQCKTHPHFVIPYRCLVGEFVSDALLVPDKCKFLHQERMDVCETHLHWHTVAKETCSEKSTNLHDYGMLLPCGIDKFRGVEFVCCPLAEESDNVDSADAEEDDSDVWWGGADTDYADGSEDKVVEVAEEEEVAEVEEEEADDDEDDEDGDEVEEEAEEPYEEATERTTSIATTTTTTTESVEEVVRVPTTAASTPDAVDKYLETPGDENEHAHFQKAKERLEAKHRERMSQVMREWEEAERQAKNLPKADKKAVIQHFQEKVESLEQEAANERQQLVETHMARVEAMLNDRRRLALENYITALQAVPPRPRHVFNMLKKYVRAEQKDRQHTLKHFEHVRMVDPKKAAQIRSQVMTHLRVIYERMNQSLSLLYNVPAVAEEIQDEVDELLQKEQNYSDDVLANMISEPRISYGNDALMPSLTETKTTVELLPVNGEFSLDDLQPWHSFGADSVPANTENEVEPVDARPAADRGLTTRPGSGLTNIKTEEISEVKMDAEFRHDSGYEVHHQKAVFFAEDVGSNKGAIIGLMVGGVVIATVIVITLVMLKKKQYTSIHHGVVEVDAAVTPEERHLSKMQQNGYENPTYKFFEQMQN

With “α-secretase (endogenous activity of the CHO-K1 cells of Example 2)”, the “α-cleavage product in culture supernatant, Western blotting” value in series [1] and in series [2] was “no α-cleavage product was detected in any culture supernatant” throughout.

Take “α-secretase (endogenous activity of the COS7 cells of Example 1)”: the “α-cleavage: amount of α-secretase cleavage product (sAPPα) in culture supernatant, Western blotting” value in series [3] is on record as “↓”; in series [4], 0; in series [5], “↓↓”; in series [6], 0; in series [7] it was “↓↓”.

In the case of “β-secretase (endogenous activity of the CHO-K1 cells of Example 2)”, in series [1], the β-amyloid production result is reported as “produced 5 to 10 times as much β-amyloid” and the “β-secretase cleavage product in culture supernatant, Western blotting” value was “a β-secretase cleavage product was detected only in the fusion protein expression cell line (S)”. In addition, the “β-secretase cleavage product in culture supernatant, Western blotting” value in series [2] is “a β-secretase cleavage product was detected only in the fusion protein expression cell line (S)”.

On to “β-secretase (endogenous activity of the COS7 cells of Example 1)”, for which the “β-cleavage: amount of β-secretase cleavage product (sAPPβ) in culture supernatant, Western blotting” value in series [3] is on record as “→”; in series [4], “→”; in series [5] it was “↑”; in series [6] it was “→”; in series [7], “→”.
